Measurements reported in paper PMC6135763 (Nature Communications, 2018).

T1: Importin α3ΔIBB (residues 64–521) (human, UniProt O00629 64-521)
T1 construct: also called Impα3; KPNA4
T1 sequence (looked up): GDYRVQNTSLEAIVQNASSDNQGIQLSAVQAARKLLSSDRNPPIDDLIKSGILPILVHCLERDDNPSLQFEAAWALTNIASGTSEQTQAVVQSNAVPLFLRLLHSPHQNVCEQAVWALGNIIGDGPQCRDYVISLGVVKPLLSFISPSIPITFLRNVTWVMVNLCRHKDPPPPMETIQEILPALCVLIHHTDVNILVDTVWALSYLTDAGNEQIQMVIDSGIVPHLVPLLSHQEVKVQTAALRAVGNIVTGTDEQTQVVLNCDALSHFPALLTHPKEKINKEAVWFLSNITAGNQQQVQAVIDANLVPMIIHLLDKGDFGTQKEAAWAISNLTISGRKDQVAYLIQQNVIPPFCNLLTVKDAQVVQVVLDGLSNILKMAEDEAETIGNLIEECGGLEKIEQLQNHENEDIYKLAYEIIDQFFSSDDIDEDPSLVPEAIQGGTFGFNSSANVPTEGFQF


Columns and labels:
[1] = target: Importin α7ΔIBB (residues 73–536) (human, UniProt O60684 73-536); experiment: ELISA; conditions: both partners purified
Chain of Importin α7ΔIBB (residues 73–536) (O60684 73-536, stated change not applied): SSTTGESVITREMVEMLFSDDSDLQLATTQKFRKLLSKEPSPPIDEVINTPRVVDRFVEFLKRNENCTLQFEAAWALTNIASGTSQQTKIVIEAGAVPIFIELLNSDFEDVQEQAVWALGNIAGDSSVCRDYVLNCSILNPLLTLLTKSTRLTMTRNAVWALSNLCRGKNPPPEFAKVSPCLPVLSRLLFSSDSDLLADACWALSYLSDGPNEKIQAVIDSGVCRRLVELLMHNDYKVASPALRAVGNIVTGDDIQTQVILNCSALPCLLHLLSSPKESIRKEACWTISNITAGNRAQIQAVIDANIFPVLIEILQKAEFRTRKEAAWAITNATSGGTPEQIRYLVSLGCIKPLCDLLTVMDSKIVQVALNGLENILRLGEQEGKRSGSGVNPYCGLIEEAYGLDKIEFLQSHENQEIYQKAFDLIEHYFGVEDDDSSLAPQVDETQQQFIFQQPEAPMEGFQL

[2] = target: T1, Importin α3ΔIBB (residues 64–521); experiment: ELISA; conditions: both partners purified

Row | Binder | Kd [1] [nM] | Kd [2] [nM]
1 | RSLNMLGRKTCLGRRVVQPGMFADYPPTKKARVLLRRMSN (domain or fragment) [GST-HeV W (C-terminal NLS domain of Hendra virus W protein, residues 409–448, GST fusion)] | 1500 | 19.9
2 | RNIHLLGRKTCLGRRVVQPGMFEDHPPTKKARVSMRRMSN (domain or fragment) [GST-NiV W (C-terminal NLS domain of Nipah virus W protein, residues 411–450, GST fusion)] | 1100 | 14.4
